For assay [1], the target named is T1, IDH1 R132H突变抗原多肽 (编号 U6184CB080-D).
T1 sequence (peptide): KPIIIGHHAYGDQYC
Nature of the assay: SPR, Biacore 8k, peptide on CM5 chip; reference H09.

Assay [2] concerns the target T2, IDH1 R132H (mutant IDH1 in glioma tissue sections) (UniProt O75874 2-414).
T2 construct: Endogenous protein in patients' glioma paraffin sections; also called IDH1突变; IDH1 R132H突变
Nature of the assay: immunohistochemistry on glioma paraffin sections.

The target in assay [3] is T3, IDH1野生型 (wild-type IDH1 in glioma tissue sections) (UniProt O75874 2-414).
T3 construct: Endogenous protein in patients' glioma paraffin sections; also called IDH1 R132H焦磷酸测序野生型样本; 不携带IDH1 R132H突变的胶质瘤样本
T3 sequence (O75874 2-414 limits assumed): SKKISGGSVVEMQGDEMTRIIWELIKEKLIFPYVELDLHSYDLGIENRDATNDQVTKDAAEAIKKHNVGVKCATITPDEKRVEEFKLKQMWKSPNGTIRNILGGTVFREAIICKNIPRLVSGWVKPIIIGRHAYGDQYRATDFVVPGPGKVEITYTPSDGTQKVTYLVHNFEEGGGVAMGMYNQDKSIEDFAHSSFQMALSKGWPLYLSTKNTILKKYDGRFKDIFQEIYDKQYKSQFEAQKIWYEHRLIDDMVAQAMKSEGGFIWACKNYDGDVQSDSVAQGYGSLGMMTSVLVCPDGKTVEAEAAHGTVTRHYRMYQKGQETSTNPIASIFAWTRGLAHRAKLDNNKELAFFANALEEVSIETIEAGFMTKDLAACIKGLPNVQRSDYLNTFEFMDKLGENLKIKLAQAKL
Nature of the assay: immunohistochemistry on glioma paraffin sections.

T2 sequence (O75874 2-414 R132H limits assumed): as the sequence (O75874 2-414 limits assumed) above, with R131H counted along it

B1: 10G5-1单克隆抗体 (anti-IDH1 R132H monoclonal antibody secreted by hybridoma 10G5-1, CGMCC No.15783) (antibody, V domains shown)
VH: QVQLQQPGTELVKPGASVHLSCKASGYTFTTYWMHWVKQRPGQGLEWIGDINPSNGETYYNEKFRNKATLTVDKSSRTAYMHLSSLSSEDSAVYYCARGFKDYWGQGTTLTVSS
VL: DVLMTQTPLSLPVSLGDQASISCRSSQTILYSDGVTYLEWYLQKPGQSPKLLIYKVSSRFSGVPDRFSGSGSGTDFTLKISRVVAEDLGIYYCFQGSHVPFTFGSGTKLEIK
notes: Mouse (BALB/c) hybridoma antibody purified on protein A; also called 10G5-1抗体; 1OG5-1抗体
Regarding B1, in assay [1], the fold lower 亲和力平衡常数 (KD) against H09 stood at 10 fold. The values for the binding result in assay [2] and in assay [3] were “binds” and “no binding”, respectively.

Values taken from patent CN108948205A (BEIJING JINDAI BIOTECHNOLOGY CO LTD, dated 2018).
